The record followed here is patent publication US20210347912A1.

The target of the assay is Human YKL-40 also known as Chitinase-3-like protein 1 (CHI3L1) (human) (UniProt P36222). Description: phage ELISA, plate coated with 0.5 ug purified YKL-40, anti-M13-HRP/TMB, well F2. In general terms: An ELISA detects its analyte on a solid surface through an enzyme-linked reagent.
UniProt P36222, sequence (P36222 22-383 limits assumed): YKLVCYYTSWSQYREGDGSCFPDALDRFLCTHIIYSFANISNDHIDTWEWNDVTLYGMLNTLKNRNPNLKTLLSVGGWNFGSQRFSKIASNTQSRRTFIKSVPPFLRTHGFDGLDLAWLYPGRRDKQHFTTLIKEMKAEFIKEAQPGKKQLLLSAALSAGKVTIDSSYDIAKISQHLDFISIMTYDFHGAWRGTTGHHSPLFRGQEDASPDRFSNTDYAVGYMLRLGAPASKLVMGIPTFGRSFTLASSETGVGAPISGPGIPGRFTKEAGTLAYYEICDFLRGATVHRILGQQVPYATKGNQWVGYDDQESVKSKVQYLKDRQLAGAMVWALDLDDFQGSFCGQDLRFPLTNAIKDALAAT

B1: 2B8 predator (VHH)
VHH: EVQLLESGGGLVQPGGSLRLSCAASGFRDSDEDMGWVRQAPGKGLEWVSSIYAPNGSTYYADSVKGRFTISRDNSKNTLYLQMNSLRAEDTAVYYCASNTYDAFDYWGQGTLVTVSS
For B1, the ELISA signal is 0.054.
